One data set concerns the target His6-O-Mad2^ΔN10 (human). Nature of the data set: SEC; gel filtration of the high-salt peak (Q2) of anion exchange chromatography (holds the C-Mad2 conformer). A general note: In gel filtration, larger molecules generally elute earlier.
A further data set concerns the target Mad2^R133A (human, UniProt Q13257 1-205, R133A). Nature of the data set: ITC. In general terms: ITC needs no label: the signal is the heat of the interaction.
For data set [1], the target named is Mad2^Y156A (in the background of R133A) (human, UniProt Q13257 1-205, Y156A | R133A). In words: ITC.
For data set [2], the target named is Mad2^L13A,R133A double mutant (human, UniProt Q13257 1-205, L13A | R133A). Nature of the data set: ITC.
In data set [3] the target is Mad2^L153A (in the background of R133A) (human, UniProt Q13257 1-205, L153A | R133A). In words: ITC.
A further data set deals with Human Cdc20 (human, UniProt Q12834 1-499). In words: cell-based or functional assay.
Chain of Human Cdc20 (Q12834 whole entry): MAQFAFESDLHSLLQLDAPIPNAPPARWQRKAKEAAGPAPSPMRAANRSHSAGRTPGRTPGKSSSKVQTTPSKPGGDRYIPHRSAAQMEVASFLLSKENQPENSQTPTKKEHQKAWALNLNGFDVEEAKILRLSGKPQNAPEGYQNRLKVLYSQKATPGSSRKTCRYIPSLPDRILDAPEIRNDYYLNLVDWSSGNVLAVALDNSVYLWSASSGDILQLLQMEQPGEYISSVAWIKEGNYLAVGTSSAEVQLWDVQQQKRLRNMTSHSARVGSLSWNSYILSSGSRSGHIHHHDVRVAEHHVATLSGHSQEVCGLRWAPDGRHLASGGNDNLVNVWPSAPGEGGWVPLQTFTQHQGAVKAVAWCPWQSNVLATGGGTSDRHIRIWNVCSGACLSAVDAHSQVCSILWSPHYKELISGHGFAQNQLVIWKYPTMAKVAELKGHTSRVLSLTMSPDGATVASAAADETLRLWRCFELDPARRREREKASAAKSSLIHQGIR
Data set [4] deals with the molecule itself. In words: SEC; gel filtration of the high-salt peak (Q2) of anion exchange chromatography (holds the C-Mad2 conformer).
Data set [5] concerns the molecule itself. In words: AUC; sedimentation equilibrium at 4 °C; 0.23, 0.36 and 0.50 mg/ml; 20 mM Tris pH 8.0, 50 mM NaCl, 0.2 mM TCEP; 13,000, 17,500 and 25,000 rpm; global fit to a monomer-dimer equilibrium; dimer to monomers.

Usually stoichiometry N stands for the number of molecules, sites or subunits per partner or assembly. Usually Kd stands for the free concentration of one partner at which half of the binding sites on the other are occupied at equilibrium, for simple one-to-one binding. A higher Kd goes with weaker binding.

On to “untagged C-Mad2^ΔN10 (domain or fragment)”, for which the stoichiometry N in the data set with His6-O-Mad2^ΔN10 (human) came to 1.

B1: Mad2-binding motif of Cdc20 (domain or fragment)
chain: EHQKAWALNLNGFDVEEAKILRLSGKPQ
modifications: Limits not printed. 111-138 is the conventional Mad2-binding fragment of human Cdc20 around the KILR motif (129-132). Check residues come from the candidate's motif feature, not from the paper.
Regarding B1, the Kd with Mad2^R133A was determined as 140 nM; in data set [1] it was 560 nM; in data set [2], 120 nM; in data set [3] it was 210 nM.

B2: Mad2^L13A,C79S,C106S triple mutant (natural protein, human, UniProt Q13257 1-205, looked up)
chain: MALQLSREQGITARGSAEIVAEFFSFGINSILYQRGIYPSETFTRVQKYGLTLLVTTDLELIKYLNNVVEQLKDWLYKSSVQKLVVVISNIESGEVLERWQFDIESDKTAKDDSAPREKSQKAIQDEIRSVIRQITATVTFLPLLEVSCSFDLLIYTDKDLVVPEKWEESGPQFITNSEEVRLRSFTTTIHKVNSMVAYKIPVND
notes: Mad2, human, coding region (205 residues), with L13A, C79S and C106S; also called Mad2^L13A dimer; symmetric C–C Mad2 dimer; source: E. coli BL21 (pGEX), purified (glutathione-Sepharose, TEV cleavage, anion exchange, gel filtration)
As to B2, the “inhibition of APC/C^Cdc20 in an in vitro reconstituted APC/C ubiquitination assay (Myc-cyclin B1); Mad2 dimers at 1–16 μM preincubated with Cdc20 for 30 min” value in the data set with Human Cdc20 is around 3 fold. Besides, in data set [4], the “stoichiometry N” value was determined as 2. In data set [5], the affinity, expressed as Kd, was 250 nM and the “stoichiometry N” value is around 2.

These data come from paper PMC2270309, “Insights into Mad2 Regulation in the Spindle Checkpoint Revealed by the Crystal Structure of the Symmetric Mad2 Dimer” (PLoS Biology, 2008).
